Measurements published in the supplement of paper PMC12458215.
± gives the uncertainty stated by the source.

System: HEK293T
Assay: plasma membrane surface immunostaining intensity (anti-HA, deep receptor scanning) (arbitrary fluorescence units); higher = higher plasma membrane expression

| Sequence | plasma membrane surface immunostaining intensity (GPCR class: A) | plasma membrane surface immunostaining intensity (GPCR class: A (Olfactory)) | further results |
| --- | --- | --- | --- |
| MRTLLPPALLTCWLLAPVNSIHPECRFHLEIQEEETKCAELLRSQTEKHKACSGVWDNITCWRPANVGETVTVPCPKVFSNFYSKAGNISKNCTSDGWSETFPDFVDACGYSDPEDESKITFYILVKAIYTLGYSVSLMSLATGSIILCLFRKLHCTRNYIHLNLFLSFILRAISVLVKDDVLYSSSGTLHCPDQPSSWVGCKLSLVFLQYCIMANFFWLLVEGLYLHTLLVAMLPPRRCFLAYLLIGWGLPTVCIGAWTAARLYLEDTGCWDTNDHSVPWWVIRIPILISIIVNFVLFISIIRILLQKLTSPDVGGNDQSQYKRLAKSTLLLIPLFGVHYMVFAVFPISISSKYQILFELCLGSFQGLVVAVLYCFLNSEVQCELKRKWRSRCPTPSASRDYRVCGSSFSRNGSEGALQFHRGSRAQSFLQTETSVI [VIPR2] |  |  | plasma membrane surface immunostaining intensity (GPCR class: B): 6470 ± 74 |
| MRTLNTSAMDGTGLVVERDFSVRILTACFLSLLILSTLLGNTLVCAAVIRFRHLRSKVTNFFVISLAVSDLLVAVLVMPWKAVAEIAGFWPFGSFCNIWVAFDIMCSTASILNLCVISVDRYWAISSPFRYERKMTPKAAFILISVAWTLSVLISFIPVQLSWHKAKPTSPSDGNATSLAETIDNCDSSLSRTYAISSSVISFYIPVAIMIVTYTRIYRIAQKQIRRIAALERAAVHAKNCQTTTGNGKPVECSQPESSFKMSFKRETKVLKTLSVIMGVFVCCWLPFFILNCILPFCGSGETQPFCIDSNTFDVFVWFGWANSSLNPIIYAFNADFRKAFSTLLGCYRLCPATNNAIETVSINNNGAAMFSSHHEPRGSISKECNLVYLIPHAVGSSEDLKKEEAAGIARPLEKLSPALSVILDYDTDVSLEKIQPITQNGQHPT [DRD1] | 1460 ± 310 |  |  |
| MRWLWPLAVSLAVILAVGLSRVSGGAPLHLGRHRAETQEQQSRSKRGTEDEEAKGVQQYVPEEWAEYPRPIHPAGLQPTKPLVATSPNPGKDGGTPDSGQELRGNLTGAPGQRLQIQNPLYPVTESSYSAYAIMLLALVVFAVGIVGNLSVMCIVWHSYYLKSAWNSILASLALWDFLVLFFCLPIVIFNEITKQRLLGDVSCRAVPFMEVSSLGVTTFSLCALGIDRFHVATSTLPKVRPIERCQSILAKLAVIWVGSMTLAVPELLLWQLAQEPAPTMGTLDSCIMKPSASLPESLYSLVMTYQNARMWWYFGCYFCLPILFTVTCQLVTWRVRGPPGRKSECRASKHEQCESQLNSTVVGLTVVYAFCTLPENVCNIVVAYLSTELTRQTLDLLGLINQFSTFFKGAITPVLLLCICRPLGQAFLDCCCCCCCEECGGASEASAANGSDNKLKTEVSSSIYFHKPRESPPLLPLGTPC [GPR37L1] | 148 ± 21 |  |  |
| MSANATLKPLCPILEQMSRLQSHSNTSIRYIDHAAVLLHGLASLLGLVENGVILFVVGCRMRQTVVTTWVLHLALSDLLASASLPFFTYFLAVGHSWELGTTFCKLHSSIFFLNMFASGFLLSAISLDRCLQVVRPVWAQNHRTVAAAHKVCLVLWALAVLNTVPYFVFRDTISRLDGRIMCYYNVLLLNPGPDRDATCNSRQVALAVSKFLLAFLVPLAIIASSHAAVSLRLQHRGRRRPGRFVRLVAAVVAAFALCWGPYHVFSLLEARAHANPGLRPLVWRGLPFVTSLAFFNSVANPVLYVLTCPDMLRKLRRSLRTVLESVLVDDSELGGAGSSRRRRTSSTARSASPLALCSRPEEPRGPARLLGWLLGSCAASPQTGPLNRALSSTSS [PTGDR2] | 6413 ± 49 |  |  |
| MSASNITLTHPTAFLLVGIPGLEHLHIWISIPFCLAYTLALLGNCTLLLIIQADAALHEPMYLFLAMLAAIDLVLSSSALPKMLAIFWFRDREINFFACLAQMFFLHSFSIMESAVLLAMAFDRYVAICKPLHYTKVLTGSLITKIGMAAVARAVTLMTPLPFLLRCFHYCRGPVIAHCYCEHMAVVRLACGDTSFNNIYGIAVAMFIVVLDLLLVILSYIFILQAVLLLASQEARYKAFGTCVSHIGAILAFYTTVVISSVMHRVARHAAPHVHILLANFYLLFPPMVNPIIYGVKTKQIRESILGVFPRKDM [OR52K2] |  | 441 ± 130 |  |
| MSEEEFYLFKNISSVGPWDGPQYHIAPVWAFYLQAAFMGTVFLIGFPLNAMVLVATLRYKKLRQPLNYILVNVSFGGFLLCIFSVFPVFVASCNGYFVFGRHVCALEGFLGTVAGLVTGWSLAFLAFERYIVICKPFGNFRFSSKHALTVVLATWTIGIGVSIPPFFGWSRFIPEGLQCSCGPDWYTVGTKYRSESYTWFLFIFCFIVPLSLICFSYTQLLRALKAVAAQQQESATTQKAEREVSRMVVVMVGSFCVCYVPYAAFAMYMVNNRNHGLDLRLVTIPSFFSKSACIYNPIIYCFMNKQFQACIMKMVCGKAMTDESDTCSSQKTEVSTVSSTQVGPN [OPN1SW] | 2770 ± 310 |  |  |
| MSENGSFANCCEAGGWAVRPGWSGAGSARPSRTPRPPWVAPALSAVLIVTTAVDVVGNLLVILSVLRNRKLRNAGNLFLVSLALADLVVAFYPYPLILVAIFYDGWALGEEHCKASAFVMGLSVIGSVFNITAIAINRYCYICHSMAYHRIYRRWHTPLHICLIWLLTVVALLPNFFVGSLEYDPRIYSCTFIQTASTQYTAAVVVIHFLLPIAVVSFCYLRIWVLVLQARRKAKPESRLCLKPSDLRSFLTMFVVFVIFAICWAPLNCIGLAVAINPQEMAPQIPEGLFVTSYLLAYFNSCLNAIVYGLLNQNFRREYKRILLALWNPRHCIQDASKGSHAEGLQSPAPPIIGVQHQADAL [MTNR1B] | 280 ± 17 |  |  |
| MSGDNSSSLTPGFFILNGVPGLEATHIWISLPFCFMYIIAVVGNCGLICLISHEEALHRPMYYFLALLSFTDVTLCTTMVPNMLCIFWFNLKEIDFNACLAQMFFVHMLTGMESGVLMLMALDRYVAICYPLRYATILTNPVIAKAGLATFLRNVMLIIPFTLLTKRLPYCRGNFIPHTYCDHMSVAKVSCGNFKVNAIYGLMVALLIGVFDICCISVSYTMILQAVMSLSSADARHKAFSTCTSHMCSIVITYVAAFFTFFTHRFVGHNIPNHIHIIVANLYLLLPPTMNPIVYGVKTKQIQEGVIKFLLGDKVSFTYDK [OR52N2] |  | 157 ± 54 |  |
| MSGENVTKVSTFILVGLPTAPGLQYLLFLLFLLTYLFVLVENLAIILIVWSSTSLHRPMYYFLSSMSFLEIWYVSDITPKMLEGFLLQQKRISFVGCMTQLYFFSSLVCTECVLLASMAYDRYVAICHPLRYHVLVTPGLCLQLVGFSFVSGFTISMIKVCFISSVTFCGSNVLNHFFCDISPILKLACTDFSTAELVDFILAFIILVFPLLATILSYWHITLAVLRIPSATGCWRAFSTCASHLTVVTVFYTALLFMYVRPQAIDSQSSNKLISAVYTVVTPIINPLIYCLRNKEFKDALKKALGLGQTSH [OR6B2] |  | 153 ± 9.6 |  |
| MSGENVTRVGTFILVGFPTAPGLQYLLFLLFLLTYLFVLVENLAIILTVWSSTSLHRPMYYFLSSMSFLEIWYVSDITPKMLEGFLLQQKRISFVGCMTQLYFFSSLVCTECVLLASMAYDRYVAICHPLRYHVLVTPGLCLQLVGFSFVSGFTISMIKVCFISSVTFCGSNVLNHFFCDISPILKLACTDFSTAELVDFILAFIILVFPLLATMLSYAHITLAVLRIPSATGCWRAFFTCASHLTVVTVFYTALLFMYVRPQAIDSRSSNKLISVLYTVITPILNPLIYCLRNKEFKNALKKAFGLTSCAVEGRLSSLLELHLQIHSQPL [OR6B3] |  | 115 ± 11 |  |
| MSGESMNFSDVFDSSEDYFVSVNTSYYSVDSEMLLCSLQEVRQFSRLFVPIAYSLICVFGLLGNILVVITFAFYKKARSMTDVYLLNMAIADILFVLTLPFWAVSHATGAWVFSNATCKLLKGIYAINFNCGMLLLTCISMDRYIAIVQATKSFRLRSRTLPRSKIICLVVWGLSVIISSSTFVFNQKYNTQGSDVCEPKYQTVSEPIRWKLLMLGLELLFGFFIPLMFMIFCYTFIVKTLVQAQNSKRHKAIRVIIAVVLVFLACQIPHNMVLLVTAANLGKMNRSCQSEKLIGYTKTVTEVLAFLHCCLNPVLYAFIGQKFRNYFLKILKDLWCVRRKYKSSGFSCAGRYSENISRQTSETADNDNASSFTM [CCR6] | 418 ± 33 |  |  |
| MSGTKLEDSPPCRNWSSASELNETQEPFLNPTDYDDEEFLRYLWREYLHPKEYEWVLIAGYIIVFVVALIGNVLVCVAVWKNHHMRTVTNYFIVNLSLADVLVTITCLPATLVVDITETWFFGQSLCKVIPYLQTVSVSVSVLTLSCIALDRWYAICHPLMFKSTAKRARNSIVIIWIVSCIIMIPQAIVMECSTVFPGLANKTTLFTVCDERWGGEIYPKMYHICFFLVTYMAPLCLMVLAYLQIFRKLWCRQIPGTSSVVQRKWKPLQPVSQPRGPGQPTKSRMSAVAAEIKQIRARRKTARMLMIVLLVFAICYLPISILNVLKRVFGMFAHTEDRETVYAWFTFSHWLVYANSAANPIIYNFLSGKFREEFKAAFSCCCLGVHHRQEDRLTRGRTSTESRKSLTTQISNFDNISKLSEQVVLTSISTLPAANGAGPLQNW [HCRTR2] | 5620 ± 490 |  |  |
| MSGTNQSSVSEFLLLGLSRQPQQQHLLFVFFLSMYLATVLGNLLIILSVSIDSCLHTPMYFFLSNLSFVDICFSFTTVPKMLANHILETQTISFCGCLTQMYFVFMFVDMDNFLLAVMAYDHFVAVCHPLHYTAKMTHQLCALLVAGLWVVANLNVLLHTLLMAPLSFCADNAITHFFCDVTPLLKLSCSDTHLNEVIILSEGALVMITPFLCILASYMHITCTVLKVPSTKGRWKAFSTCGSHLAVVLLFYSTIIAVYFNPLSSHSAEKDTMATVLYTVVTPMLNPFIYSLRNRYLKGALKKVVGRVVFSV [OR1F1] |  | 278 ± 120 |  |
| MSIMMLPMEQKIQWVPTSLQDITAVLGTEAYTEEDKSMVSHAQKSQHSCLSHSRWLRSPQVTGGSWDLRIRPSKDSSSFRQAQCLRKDPGANNHLESQGVRGTAGDADRELRGPSEKATAGQPRVTLLPTPHVSGLSQEFESHWPEIAERSPCVAGVIPVIYYSVLLGLGLPVSLLTAVALARLATRTRRPSYYYLLALTASDIIIQVVIVFAGFLLQGAVLARQVPQAVVRTANILEFAANHASVWIAILLTVDRYTALCHPLHHRAASSPGRTRRAIAAVLSAALLTGIPFYWWLDMWRDTDSPRTLDEVLKWAHCLTVYFIPCGVFLVTNSAIIHRLRRRGRSGLQPRVGKSTAILLGITTLFTLLWAPRVFVMLYHMYVAPVHRDWRVHLALDVANMVAMLHTAANFGLYCFVSKTFRATVRQVIHDAYLPCTLASQPEGMAAKPVMEPPGLPTGAEV [GPR142] | 165 ± 58 |  |  |
| MSITKAWNSSSVTMFILLGFTDHPELQALLFVTFLGIYLTTLAWNLALIFLIRGDTHLHTPMYFFLSNLSFIDICYSSAVAPNMLTDFFWEQKTISFVGCAAQFFFFVGMGLSECLLLTAMAYDRYAAISSPLLYPTIMTQGLCTRMVVGAYVGGFLSSLIQASSIFRLHFCGPNIINHFFCDLPPVLALSCSDTFLSQVVNFLVVVTVGGTSFLQLLISYGYIVSAVLKIPSAEGRWKACNTCASHLMVVTLLFGTALFVYLRPSSSYLLGRDKVVSVFYSLVIPMLNPLIYSLRNKEIKDALWKVLERKKVFS [OR5A1] |  | 122 ± 20 |  |
